Here are results for ten sequences from patent US20140045176.

What all share (assay): cell_activity
Data set [1] concerns ZFN-224 R (CCR5) (Artificial Sequence). The conditions noted are these: as ZFN pair; T7E1, sorted RFP+GFP+ HEK293; unsorted 12%.
Data set [2] relates to CMAH-ZFN L (Artificial Sequence). The conditions noted are these: as ZFN pair; T7E1, hygromycin-selected porcine ear cells; untreated 3.1%.
The subject of data set [3] is Z891 L (CCR5 ZFN) (Artificial Sequence). The note with it: as ZFN pair; T7E1, sorted RFP+GFP+ HEK293; unsorted 0.8%.
Data set [4] has as its system Thumpd3 ZFN L (Artificial Sequence). The note with it: as ZFN pair; T7E1, sorted RFP+GFP+ mouse iPS-derived fibroblasts; unsorted 0.5%.
For data set [5], the system named is CMAH-ZFN R (Artificial Sequence). The note with it: as ZFN pair; T7E1, hygromycin-selected porcine ear cells; untreated 3.1%.
For data set [6], the system named is ZFN-224 L (CCR5) (Artificial Sequence). The conditions noted are these: as ZFN pair; T7E1, sorted RFP+GFP+ HEK293; unsorted 12%.
Data set [7] deals with Thumpd3 ZFN R (Artificial Sequence). The conditions noted are these: as ZFN pair; T7E1, sorted RFP+GFP+ mouse iPS-derived fibroblasts; unsorted 0.5%.
For data set [8], the system named is Z891 R (CCR5 ZFN) (Artificial Sequence). The conditions noted are these: as ZFN pair; T7E1, sorted RFP+GFP+ HEK293; unsorted 0.8%.
Data set [9] deals with CCR5 TALEN R (Artificial Sequence). The conditions noted are these: as TALEN pair; T7E1, sorted RFP+GFP+ HEK293; unsorted 0.5%; 30 C culture.
The test system of data set [10] is CCR5 TALEN L (Artificial Sequence). The note with it: as TALEN pair; T7E1, sorted RFP+GFP+ HEK293; unsorted 0.5%; 30 C culture.

“AAACTGCAAAAG (double strand) [ZFN-224_R half-site]” showed an activity in [1] of 69 % mutation.

In turn, “AAGCAGGACCGA (double strand) [CMAH-ZFN_L half-site]” showed an activity in [2] of 12.1 % mutation. “ATAGATGATGGG (double strand) [Z891_L half-site]” displayed an activity in data set [3] of 8.7 % mutation. In turn, “CGAGCACGCCGC (double strand) [Thumpd3_L half-site]” gave an activity in data set [4] of 46 % mutation. “CGAGGATGGTGG (double strand) [CMAH-ZFN_R half-site]”: the activity in data set [5] worked out at 12.1 % mutation. Take “GATGAGGATGAC (double strand) [ZFN-224_L half-site]”: the activity in data set [6] turned out to be 69 % mutation. “GGAGACCGGAAG (double strand) [Thumpd3_R half-site]” gave an activity in [7] of 46 % mutation.

“GTCGGGGAGAAG (double strand) [Z891_R half-site]” came in with an activity in data set [8] of 8.7 % mutation. On to “TAGTTTCTGAACTTCTCCCC (double strand) [TALEN_R half-site]”, for which the activity in data set [9] was 4.3 % mutation. “TGCATCAACCCCATCATC (double strand) [TALEN_L half-site]” showed an activity in data set [10] of 4.3 % mutation.
